From US20240270846A1 (published 2024)

Columns and labels:
[1] = target: T1, biotinylated CD3 epsilon epitope peptide (UniProt P07766 22-48, biotinylated); assay: SPR (Biacore); biotinylated CD3 epsilon epitope peptide on chip via streptavidin, antibody as analyte
T1 chain: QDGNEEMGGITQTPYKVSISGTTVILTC

[2] = target: T2, biotin-labeled human CD137 fused to human IgG1 Fc fragment (human, biotin-labeled); assay: bead ELISA, IgG on biotin-human CD137-Fc on streptavidin beads, no free CD3e
T2 construct: Immobilised on streptavidin beads through biotin; also called human CD137-Fc; biotin-human CD137-Fc

[3] = target: T2, biotin-labeled human CD137 fused to …; assay: competitive bead ELISA, IgG on biotin-human CD137-Fc, competitor free CD3 epsilon peptide 125 pmol/well
[4] = target: T2, biotin-labeled human CD137 fused to …; assay: competitive bead ELISA, decrease of signal on biotin-human CD137-Fc with 125 pmol/well free CD3 epsilon peptide against 0
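Wherever ELISA signal, free CD3e 125 pmol/well is given: bead ELISA on streptavidin-coated magnetic beads, with the signal read as well fluorescence 2 min after APS-5 addition.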

Binder | Kd [1] [nM] | ELISA signal, free CD3e 0 pmol/well [2] | ELISA signal, free CD3e 125 pmol/well [3] | Signal decrease [4] [%]
NNS6f17 (CE115HA340 with WGEGVV inserted between Kabat positions 99 and 100), one-arm antibody (antibody) chain 1: QVQLVESGGGLVQPGRSLRLSCAASGFTFSNAWMHWVRQAPGKGLEWVAQIKDKSNNYATYYAESVKGRFTISRDDSKNSIYLQMNSLKTEDTAVYYCRYVHYAAWGEGVVYYGVDAWGQGTTVTVSSASTKGPSVFPLAPSSKSTSGGTAALGCLVKDYFPEPVTVSWNSGALTSGVHTFPAVLQSSGLYSLSSVVTVPSSSLGTQTYICNVNHKPSNTKVDKKVEPKSCDKTHTCPPCPAPEAAGGPSVFLFPPKPKDTLMISRTPEVTCVVVDVSHEDPEVKFNWYVDGVEVHNAKTKPREEQYASTYRVVSVLTVLHQDWLNGKEYKCKVSNKALPAPIEKTISKAKGQPREPQVYTLPPSRCELTKNQVSLSCAVKGFYPSDIAVEWESNGQPENNYKTTPPVLDSDGSFFLVSKLTVDKSRWQQGNVFSCSVMHEALHNHYTQKSLSLSPDYKDDDDK chain 2: EPKSSDKTHTCPPCPAPELLGGPSVFLFPPKPKDTLMISRTPEVTCVVVDVSHEDPEVKFNWYVDGVEVHNAKTKPREEQYNSTYRVVSVLTVLHQDWLNGKEYKCKVSNKALPAPIEKTISKAKGQPREPQVCTLPPSRDELTKNQVSLWCLVKGFYPSDIAVEWESNGQPENNYKTTPPVLDSDGSFFLYSKLTVDKSRWQQGNVFSCSVMHEALHNRYTQKSLSLSP chain 3: DIVMTQSPLSLPVTPGEPASISCRSSQSLVHSNRNTYLHWYQQKPGQAPRLLIYKVSNRFSGVPDRFSGSGSGTDFTLKISRVEAEDVGVYYCGQGTQVPYTFGQGTKLEIKRTVAAPSVFIFPPSDEQLKSGTASVVCLLNNFYPREAKVQWKVDNALQSGNSQESVTEQDSKDSTYSLSSTLTLSKADYEKHKVYACEVTHQGLSSPVTKSFNRGEC | 74 | – | – | –
NNS6f27 (CE115HA340 with VWGSVW inserted between Kabat positions 99 and 100), one-arm antibody (antibody) chain 1: QVQLVESGGGLVQPGRSLRLSCAASGFTFSNAWMHWVRQAPGKGLEWVAQIKDKSNNYATYYAESVKGRFTISRDDSKNSIYLQMNSLKTEDTAVYYCRYVHYAAVWGSVWYYGVDAWGQGTTVTVSSASTKGPSVFPLAPSSKSTSGGTAALGCLVKDYFPEPVTVSWNSGALTSGVHTFPAVLQSSGLYSLSSVVTVPSSSLGTQTYICNVNHKPSNTKVDKKVEPKSCDKTHTCPPCPAPEAAGGPSVFLFPPKPKDTLMISRTPEVTCVVVDVSHEDPEVKFNWYVDGVEVHNAKTKPREEQYASTYRVVSVLTVLHQDWLNGKEYKCKVSNKALPAPIEKTISKAKGQPREPQVYTLPPSRCELTKNQVSLSCAVKGFYPSDIAVEWESNGQPENNYKTTPPVLDSDGSFFLVSKLTVDKSRWQQGNVFSCSVMHEALHNHYTQKSLSLSPDYKDDDDK chain 2: EPKSSDKTHTCPPCPAPELLGGPSVFLFPPKPKDTLMISRTPEVTCVVVDVSHEDPEVKFNWYVDGVEVHNAKTKPREEQYNSTYRVVSVLTVLHQDWLNGKEYKCKVSNKALPAPIEKTISKAKGQPREPQVCTLPPSRDELTKNQVSLWCLVKGFYPSDIAVEWESNGQPENNYKTTPPVLDSDGSFFLYSKLTVDKSRWQQGNVFSCSVMHEALHNRYTQKSLSLSP chain 3: DIVMTQSPLSLPVTPGEPASISCRSSQSLVHSNRNTYLHWYQQKPGQAPRLLIYKVSNRFSGVPDRFSGSGSGTDFTLKISRVEAEDVGVYYCGQGTQVPYTFGQGTKLEIKRTVAAPSVFIFPPSDEQLKSGTASVVCLLNNFYPREAKVQWKVDNALQSGNSQESVTEQDSKDSTYSLSSTLTLSKADYEKHKVYACEVTHQGLSSPVTKSFNRGEC | 38 | – | – | –
NNS6f29 (CE115HA340 with IYYPTN inserted between Kabat positions 99 and 100), one-arm antibody (antibody) chain 1: QVQLVESGGGLVQPGRSLRLSCAASGFTFSNAWMHWVRQAPGKGLEWVAQIKDKSNNYATYYAESVKGRFTISRDDSKNSIYLQMNSLKTEDTAVYYCRYVHYAAIYYPTNYYGVDAWGQGTTVTVSSASTKGPSVFPLAPSSKSTSGGTAALGCLVKDYFPEPVTVSWNSGALTSGVHTFPAVLQSSGLYSLSSVVTVPSSSLGTQTYICNVNHKPSNTKVDKKVEPKSCDKTHTCPPCPAPEAAGGPSVFLFPPKPKDTLMISRTPEVTCVVVDVSHEDPEVKFNWYVDGVEVHNAKTKPREEQYASTYRVVSVLTVLHQDWLNGKEYKCKVSNKALPAPIEKTISKAKGQPREPQVYTLPPSRCELTKNQVSLSCAVKGFYPSDIAVEWESNGQPENNYKTTPPVLDSDGSFFLVSKLTVDKSRWQQGNVFSCSVMHEALHNHYTQKSLSLSPDYKDDDDK chain 2: EPKSSDKTHTCPPCPAPELLGGPSVFLFPPKPKDTLMISRTPEVTCVVVDVSHEDPEVKFNWYVDGVEVHNAKTKPREEQYNSTYRVVSVLTVLHQDWLNGKEYKCKVSNKALPAPIEKTISKAKGQPREPQVCTLPPSRDELTKNQVSLWCLVKGFYPSDIAVEWESNGQPENNYKTTPPVLDSDGSFFLYSKLTVDKSRWQQGNVFSCSVMHEALHNRYTQKSLSLSP chain 3: DIVMTQSPLSLPVTPGEPASISCRSSQSLVHSNRNTYLHWYQQKPGQAPRLLIYKVSNRFSGVPDRFSGSGSGTDFTLKISRVEAEDVGVYYCGQGTQVPYTFGQGTKLEIKRTVAAPSVFIFPPSDEQLKSGTASVVCLLNNFYPREAKVQWKVDNALQSGNSQESVTEQDSKDSTYSLSSTLTLSKADYEKHKVYACEVTHQGLSSPVTKSFNRGEC | 90 | – | – | –
dBBDu205 (antibody, human IgG1, V domains shown, IgG: VH joined to human IgG1 CH1-Fc, GLS3000 as light chain) VH: QVQLVESGGGLVQPGRSLRLSCAASGFTFSNAWMHWVRQAPGKGLEWVAQIKDRSQLYAAYYAPSVKGRFTISRDDSKNSIYLQMNSLKTEDTAVYYCHYVHYASASTVLPAFGVDAWGQGTTVTVSS VL: DIVMTQSPLSLPVTPGEPASISCRSSQSLVHSNRNTYLHWYQQKPGQAPRLLIYKVSNRFSGVPDRFSGSGSGTDFTLKISRVEAEDVGVYYCGQGTQVPYTFGQGTKLEIK | – | 45200 | 2190 | 95.2
dBBDu222 (antibody, human IgG1, V domains shown, IgG: VH joined to human IgG1 CH1-Fc, GLS3000 as light chain) VH: QVQLVESGGGLVQPGRSLRLSCAASGFTISSAWMHWVRQAPGKGLEWVAQIKDRANGYAAYYAPSVKGRFTISRDDSKNSIYLQMNSLKTEDTAVYYCRYVHYATAYDGFYGFGVDAWGQGTTVTVSS VL: DIVMTQSPLSLPVTPGEPASISCRSSQSLVHSNRNTYLHWYQQKPGQAPRLLIYKVSNRFSGVPDRFSGSGSGTDFTLKISRVEAEDVGVYYCGQGTQVPYTFGQGTKLEIK | – | 7190 | 3240 | 55
dBBDu217 (antibody, human IgG1, V domains shown, IgG: VH joined to human IgG1 CH1-Fc, GLS3000 as light chain) VH: QVQLVESGGGLVQPGRSLRLSCAASGFTFSNAWMHWVRQAPGKGLEWVAQIKDRQQGYATYYAPSVKGRFTISRDDSKNSIYLQMNSLKTEDTAVYYCRFVHYHLAGYGYYGVDAWGQGTTVTVSS VL: DIVMTQSPLSLPVTPGEPASISCRSSQSLVHSNRNTYLHWYQQKPGQAPRLLIYKVSNRFSGVPDRFSGSGSGTDFTLKISRVEAEDVGVYYCGQGTQVPYTFGQGTKLEIK | – | 19100 | 2420 | 87.3
dBBDu174 (antibody, human IgG1, V domains shown, IgG: VH joined to human IgG1 CH1-Fc, GLS3000 as light chain) VH: QVQLVESGGGLVQPGRSLRLSCAASGFTFSSAWMHWVRQAPGKGLEWVAQIKDRASAYNAYYAESVKGRFTISRDDSKNSIYLQMNSLKTEDTAVYYCRYVHYPSYVSFLPYYGVDAWGQGTTVTVSS VL: DIVMTQSPLSLPVTPGEPASISCRSSQSLVHSNRNTYLHWYQQKPGQAPRLLIYKVSNRFSGVPDRFSGSGSGTDFTLKISRVEAEDVGVYYCGQGTQVPYTFGQGTKLEIK | – | 4800 | 1880 | 60.8
dBBDu125 (antibody, human IgG1, V domains shown, IgG: VH joined to human IgG1 CH1-Fc, GLS3000 as light chain; also called DXDU01_3_#019; DXDU01_3 #019) VH: QVQLVESGGGLVQPGRSLRLSCAASGFTFSIAWMHWVRQAPGKGLEWVAQIKDKVNGYTAYYAESVKGRFTISRDDSKNSIYLQMNSLKTEDTAVYYCRYVHYAAYYDVLGYGGVDAWGQGTTVTVSS VL: DIVMTQSPLSLPVTPGEPASISCRSSQSLVHSNRNTYLHWYQQKPGQAPRLLIYKVSNRFSGVPDRFSGSGSGTDFTLKISRVEAEDVGVYYCGQGTQVPYTFGQGTKLEIK | – | 61400 | 2060 | 96.7
Du115/DUL008 (antibody, V domains shown, Human IgG1 format; also called dBBDu_115 with L008) VH: QVQLVESGGGLVQPGRSLRLSCAASGFTFSNAWMHWVRQAPGKGLEWVAQIKDKANSYNTYYAPSVKGRFTISRDDSKNSIYLQMNSLKTEDTAVYYCRYVHYGSSYGFLFAGYGVDAWGQGTTVTVSS VL: DIVMTQSPLSLPVTPGEPASISCQSSEELLHANRKTYLHWYQQKPGQAPRLLIYKVQNRFSGVPDRFSGSGSGTDFTLKISRVEAEDVGVYYCAQGTATPFTFGQGTKLEIK | – | 86200 | 2620 | 97
anti-human CD137 antibody described in WO2005/035584A1 (abbreviated as B) (antibody, V domains shown, also called control anti-CD137 antibody) VH: QVQLQQWGAGLLKPSETLSLTCAVYGGSFSGYYWSWIRQSPEKGLEWIGEINHGGYVTYNPSLESRVTISVDTSKNQFSLKLSSVTAADTAVYYCARDYGPGNYDWYFDLWGRGTLVTVSS VL: EIVLTQSPATLSLSPGERATLSCRASQSVSSYLAWYQQKPGQAPRLLIYDASNRATGIPARFSGSGSGTDFTLTISSLEPEDFAVYYCQQRSNWPPALTFGGGTKVEIK | – | 99400 | 98100 | 1.26
